Legend:
Assay in all cases: cell_activity
[1] = tested on: POU5F1 TALEN 101229 (half repeat for G) (Xanthomonas sp. (engineered)); details: paired with 101138
[2] = tested on: POU5F1 TALEN 101138 (Xanthomonas sp. (engineered)); details: paired with 101229
[3] = tested on: POU5F1 TALEN 101125 (Xanthomonas sp. (engineered)); details: paired with 101225
[4] = tested on: POU5F1 TALEN 101225 (NN half repeat) (Xanthomonas sp. (engineered)); details: paired with 101125; NN half repeat

“CCCCCATTCCTAGAAGG (double strand) [101229 site]” showed an activity [1] of 25.6 % NHEJ.
Work on “CTGGGCTCTCCCAT (double strand) [101138 site]” yielded an activity [2] of 25.6 % NHEJ.
Work on “GACCCTGCCTGCTCCT (double strand) [101125 site]” yielded an activity [3] of 5 % NHEJ.
Work on “CACCTGCAGCTGCCCAG (double strand) [101225 site]” yielded an activity [4] of 5 % NHEJ.

Reference: patent US20110301073
